Data: patent US10590440B2, “Process for producing a fermentation product from a lignocellulose-containing material” (CysBio ApS, priority 2014, dated 2020)

Tested on: E. coli
Assay: Growth of E. coli with or without SULT1A1 in M9 with wheat straw biomass hydrolysate (Example 7, FIG. 9)
Format: cell-based, Escherichia coli
Conditions: 1 mM IPTG
Source text: Here, we examine pre-treated wheat straw biomass hydrolysate in growth medium for a biotechnological relevant organism, exemplified by E. coli. Specifically, we used strains carrying plasmids expressing SULT1A1 from rat (Rattus norvegicus) and SULT1E1 from chicken (Gallus gallus domesticus) (Example 1) cloned into the expression vector pETDuet-1, and cysDNCQ from E. coli cloned into expression vector pRSFDuet-1 (Example 2) as described previously.
Cells expressing no sulfotransferase or SULT1A1 from rat were grown in M9 media with 1 mM IPTG with or without inhibitors of growth. Biomass hydrolysate was prepared by mixing 100 g biomass hydrolysate with 200 g of water for 2 h at 37° C., followed by centrifugation and filtration through a 0.2 μL-filter.

B1: SULT1A1 Rattus norvegicus: aryl sulfotransferase SULT1A1 from Rattus norvegicus (SEQ ID NO: 1), native gene, heterologously expressed (protein, listed as Rattus norvegicus)
chain: MEFSRPPLVHVKGIPLIKYFAETIGPLQNFTAWPDDLLISTYPKSGTTWMSEILDMIYQGGKLEKCGRAPIYARVPFLEFKCPGVPSGLETLEETPAPRLLKTHLPLSLLPQSLLDQKVKVIYIARNAKDVVVSYYNFYNMAKLHPDPGTWDSFLENFMDGEVSYGSWYQHVKEWWELRHTHPVLYLFYEDIKENPKREIKKILEFLGRSLPEETVDSIVHHTSFKKMKENCMTNYTTIPTEIMDHNVSPFMRKGTTGDWKNTFTVAQNERFDAHYAKTMTDCDFKFRCEL
M9 with 8% or 12% biomass hydrolysate
  growth rate versus strain without sulfotransferase: significantly higher
M9 without supplements
  growth rate versus strain without sulfotransferase: no difference in growth rate
